The values that follow come from patent US20240270803A1 (Daiichi Sankyo, published 2024).

Holding throughout (test): cell-based or functional assay
The target of assay [1] is T1, HTRA1 protease domain HTRA1 (cat) (human, UniProt F1N152 165-380 (bovine entry)).
Assay [2] deals with T2, full-length HTRA1 (HTRA1 (full)) (human, UniProt Q92743 23-480).
In assay [3] the target is T1, HTRA1 protease domain HTRA1 (cat). This is another data set of the same source.
The target in assay [4] is T2, full-length HTRA1 (HTRA1 (full)). The source holds these as a separate data set.

T1 sequence (F1N152 165-380): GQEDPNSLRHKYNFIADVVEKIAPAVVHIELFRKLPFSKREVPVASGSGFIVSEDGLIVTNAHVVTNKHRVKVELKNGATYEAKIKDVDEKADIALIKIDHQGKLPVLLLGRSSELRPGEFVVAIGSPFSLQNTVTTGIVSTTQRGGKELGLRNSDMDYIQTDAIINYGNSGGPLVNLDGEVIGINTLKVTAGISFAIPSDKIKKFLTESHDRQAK
T2 sequence (Q92743 23-480): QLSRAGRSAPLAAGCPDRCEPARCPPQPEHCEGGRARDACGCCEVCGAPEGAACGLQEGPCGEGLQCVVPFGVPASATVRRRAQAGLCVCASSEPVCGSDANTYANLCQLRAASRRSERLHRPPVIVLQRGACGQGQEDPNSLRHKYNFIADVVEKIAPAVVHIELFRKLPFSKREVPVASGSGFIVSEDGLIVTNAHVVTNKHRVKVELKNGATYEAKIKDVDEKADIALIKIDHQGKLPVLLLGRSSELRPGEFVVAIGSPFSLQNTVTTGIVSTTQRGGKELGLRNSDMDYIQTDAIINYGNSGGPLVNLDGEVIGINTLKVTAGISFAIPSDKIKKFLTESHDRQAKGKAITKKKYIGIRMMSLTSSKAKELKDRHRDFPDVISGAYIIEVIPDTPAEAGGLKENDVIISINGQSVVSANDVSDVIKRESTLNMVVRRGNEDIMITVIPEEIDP

B1: peptide derivative H322AT (designed binder)
chain: DPQFGLFSKYRTPNCSQHEGMACYALYEPVCGSDMSTYANECTLCMKIREGGHNIKIIRNGPCGG
Consider B1, for which the “IC50 (nM) for HTRA1 (cat); decomposition rate of substrate peptide H2-Opt” value in assay [1] was 45 nM. For the same molecule, the “IC50 (nM) for HTRA1 (full); decomposition rate of substrate peptide H2-Opt” value in assay [2] is 25 nM.

B2: peptide M7 (designed binder)
chain: DPQFGLFSKYRTPNCSDHAGMACVAFYEPVCGSDMSTYANECTLCMKIREGGHNIKIIRNGPCGG
Turning to B2, the “IC50 (nM) for HTRA1 (cat); decomposition rate of substrate peptide H2-Opt” value in assay [1] stood at 43 nM. The “IC50 (nM) for HTRA1 (full); decomposition rate of substrate peptide H2-Opt” value in assay [2] came to 24 nM.

B3: peptide derivative H308AT (designed binder)
chain: DPQFGLFSKYRTPNCSDHAGMACVALYEPVCGSDMSTYANECTLCMKIREGGHNIKIIRNGPCGG
As to B3, the “IC50 (nM) for HTRA1 (cat); decomposition rate of substrate peptide H2-Opt” value in assay [1] was found to be 49 nM. Also, the “IC50 (nM) for HTRA1 (full); decomposition rate of substrate peptide H2-Opt” value in assay [2] worked out at 31 nM.

B4: peptide H322 (designed binder)
chain: DPQFGLFSKYRTPNCSQHEGMACYALYEPVCGSDMSTYVNECALCMKIREGGHNIKIIRNGPCGG
As for B4, the “IC50 (nM) for HTRA1 (cat); decomposition rate of substrate peptide H2-Opt” value in assay [1] stood at 50 nM. Moreover, the “IC50 (nM) for HTRA1 (full); decomposition rate of substrate peptide H2-Opt” value in assay [2] turned out to be 17 nM.

B5: peptide H228 (designed binder)
chain: DPQFGLFSKYRTPNCGHYNGWACQAFFEPVCGSDMSTYANECTLCMKIREGGHNIKIIRNGPCGG
In the case of B5, the “IC50 (nM) for HTRA1 (cat); decomposition rate of substrate peptide H2-Opt” value in assay [1] was 71 nM. In assay [2], the “IC50 (nM) for HTRA1 (full); decomposition rate of substrate peptide H2-Opt” value was found to be 38 nM.

B6: peptide H321 (designed binder)
chain: DPQFGLFSKYRTPNCSDFDGMACYAFYEPVCGSDMSTYMNECALCMKIREGGHNIKIIRNGPCGG
For B6, the “IC50 (nM) for HTRA1 (cat); decomposition rate of substrate peptide H2-Opt” value in assay [1] worked out at 48 nM. Besides, the “IC50 (nM) for HTRA1 (full); decomposition rate of substrate peptide H2-Opt” value in assay [2] is 29 nM.

B7: peptide H223 (designed binder)
chain: DPQFGLFSKYRTPNCTMDMGMACWAFYEPVCGSDMSTYANECTLCMKIREGGHNIKIIRNGPCGG
For the molecule B7, the “IC50 (nM) for HTRA1 (cat); decomposition rate of substrate peptide H2-Opt” value in assay [1] was found to be 41 nM. For the same molecule, in assay [2], the “IC50 (nM) for HTRA1 (full); decomposition rate of substrate peptide H2-Opt” value came to 66 nM.

B8: peptide H218 (designed binder)
chain: DPQFGLFSKYRTPNCLKSEGMACYAYYEPVCGSDMSTYANECTLCMKIREGGHNIKIIRNGPCGG
Take B8: the “IC50 (nM) for HTRA1 (cat); decomposition rate of substrate peptide H2-Opt” value in assay [1] turned out to be 72 nM. Also, the “IC50 (nM) for HTRA1 (full); decomposition rate of substrate peptide H2-Opt” value in assay [2] came to 55 nM.

B9: peptide derivative H322AT_D1G_S16A (designed binder)
chain: GPQFGLFSKYRTPNCAQHEGMACYALYEPVCGSDMSTYANECTLCMKIREGGHNIKIIRNGPCGG
Consider B9, for which, in assay [3], the “IC50 (nM) for HTRA1 (cat); decomposition rate of substrate peptide H2-Opt (n=3)” value (shortened to “IC50 (nM) for HTRA1 (cat) … (n=3)”) was determined as 12.9 nM. Moreover, the “IC50 (nM) for HTRA1 (full); decomposition rate of substrate peptide H2-Opt (n=3)” value (shortened to “IC50 (nM) for HTRA1 (full) … (n=3)”) in assay [4] is 12.2 nM.

B10: peptide H308 (designed binder)
chain: DPQFGLFSKYRTPNCSDHAGMACVALYEPVCGSDMSTYENECVLCMKIREGGHNIKIIRNGPCGG
Consider B10, for which the “IC50 (nM) for HTRA1 (cat); decomposition rate of substrate peptide H2-Opt” value in assay [1] is 37 nM. The “IC50 (nM) for HTRA1 (full); decomposition rate of substrate peptide H2-Opt” value in assay [2] came to 15 nM.

B11: peptide derivative H321AT_D1G_S16A (designed binder)
chain: GPQFGLFSKYRTPNCADFDGMACYAFYEPVCGSDMSTYANECTLCMKIREGGHNIKIIRNGPCGG
Regarding B11, in assay [3], the “IC50 (nM) for HTRA1 (cat) … (n=3)” value was 9 nM. Moreover, the “IC50 (nM) for HTRA1 (full) … (n=3)” value in assay [4] was found to be 12 nM.

B12: peptide derivative H308_D1G_S16A (designed binder)
chain: GPQFGLFSKYRTPNCADHAGMACVALYEPVCGSDMSTYENECVLCMKIREGGHNIKIIRNGPCGG
As for B12, the “IC50 (nM) for HTRA1 (cat) … (n=3)” value in assay [3] came out at 7.9 nM. For the same molecule, the “IC50 (nM) for HTRA1 (full) … (n=3)” value in assay [4] was found to be 9.1 nM.

B13: peptide derivative H321AT (designed binder)
chain: DPQFGLFSKYRTPNCSDFDGMACYAFYEPVCGSDMSTYANECTLCMKIREGGHNIKIIRNGPCGG
Take B13: in assay [1], the “IC50 (nM) for HTRA1 (cat); decomposition rate of substrate peptide H2-Opt” value was 46 nM. Moreover, in assay [2], the “IC50 (nM) for HTRA1 (full); decomposition rate of substrate peptide H2-Opt” value is 18 nM.
